These results are taken from patent publication US20180155451A1 (published 2018).

The labels stand for the following.
T1: FcγRIIb extracellular domain with C-terminal His tag (human, UniProt P31994 43-217)
T1 construct: extracellular domain; also called FcgRIIb; 2b; not shown: His tag at the C terminus
T1 sequence (looked up): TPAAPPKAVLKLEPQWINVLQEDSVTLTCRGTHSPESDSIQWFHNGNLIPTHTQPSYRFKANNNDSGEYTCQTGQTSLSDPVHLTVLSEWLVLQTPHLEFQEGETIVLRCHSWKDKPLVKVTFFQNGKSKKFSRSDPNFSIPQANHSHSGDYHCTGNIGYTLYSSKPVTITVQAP

T2: FcγRIIb extracellular domain with C-terminal His tag (human, UniProt P31994 43-217)
T2 construct: extracellular domain; Soluble receptor expressed in FreeStyle293 cells, used as analyte in Biacore; also called FcgRIIb; CD32B; not shown: His tag at the C terminus
T2 sequence (looked up): T1 sequence (looked up)

B1: GpH7-A5/GpH7-B3 variant Y300_19Q/GpL16-k0 (antibody, human IgG1, kappa)
heavy 1: not shown
heavy 2: not shown
light: DIVMTQSPLSLPVTPGEPASISCQASESLVHSNRNTYLHWYLQKPGQSPQLLIYKVSNRFSGVPDRFSGSGSGTDFTLKISRVEAEDVGVYYCSQNTHVPPTFGQGTKVEIERTVAAPSVFIFPPSDEQLKSGTASVVCLLNNFYPREAKVQWKVDNALQSGNSQESVTEQDSKDSTYSLSSTLTLSKADYEKHKVYACEVTHQGLSSPVTKSFNRGEC
notes: Heterodimerized anti-glypican-3 IgG1; the substitution stands in the GpH7-B3 chain only; also called He Ab
B2: GpH7-A5/GpH7-B3 variant S298_06M/GpL16-k0 (antibody, human IgG1, kappa)
heavy 1: not shown
heavy 2: not shown
light: B1 light
notes: as for B1
B3: GpH7-A5/GpH7-B3 variant S298_08L/GpL16-k0 (antibody, human IgG1, kappa)
heavy 1: not shown
heavy 2: not shown
light: B1 light
notes: as for B1
B4: GpH7-A5/GpH7-B3 variant P271_06M/GpL16-k0 (antibody, human IgG1, kappa)
heavy 1: not shown
heavy 2: not shown
light: B1 light
notes: Heterodimerized anti-glypican-3 IgG1; substitution in only one H chain; also called P271M; He Ab
B5: GpH7-A5/GpH7-B3 variant P271_16H/GpL16-k0 (antibody, human IgG1, kappa)
heavy 1: not shown
heavy 2: not shown
light: B1 light
notes: Heterodimerized anti-glypican-3 IgG1; substitution in only one H chain; also called P271H; He Ab
B6: GpH7-A5/GpH7-B3 variant P271_19Q/GpL16-k0 (antibody, human IgG1, kappa)
heavy 1: not shown
heavy 2: not shown
light: B1 light
notes: Heterodimerized anti-glypican-3 IgG1; substitution in only one H chain; also called P271Q; He Ab
B7: GpH7-A5/GpH7-B3 variant Q295_07I/GpL16-k0 (antibody, human IgG1, kappa)
heavy 1: not shown
heavy 2: not shown
light: B1 light
notes: Heterodimerized anti-glypican-3 IgG1; substitution in only one H chain; also called Q295I; He Ab
B8: GpH7-A5/GpH7-B3 variant Q295_04F/GpL16-k0 (antibody, human IgG1, kappa)
heavy 1: not shown
heavy 2: not shown
light: B1 light
notes: Heterodimerized anti-glypican-3 IgG1; substitution in only one H chain; also called Q295F; He Ab
B9: GpH7-A5/GpH7-B3 variant P271_13S/GpL16-k0 (antibody, human IgG1, kappa)
heavy 1: not shown
heavy 2: not shown
light: B1 light
notes: Heterodimerized anti-glypican-3 IgG1; substitution in only one H chain; also called P271S; He Ab
B10: GpH7-A5/GpH7-B3 variant P271_20W/GpL16-k0 (antibody, human IgG1, kappa)
heavy 1: not shown
heavy 2: not shown
light: B1 light
notes: Heterodimerized anti-glypican-3 IgG1; substitution in only one H chain; also called P271W; He Ab
B11: GpH7-A5/GpH7-B3 variant P271_14T/GpL16-k0 (antibody, human IgG1, kappa)
heavy 1: not shown
heavy 2: not shown
light: B1 light
notes: Heterodimerized anti-glypican-3 IgG1; substitution in only one H chain; also called P271T; He Ab
B12: GpH7-A5/GpH7-B3 variant P271_07I/GpL16-k0 (antibody, human IgG1, kappa)
heavy 1: not shown
heavy 2: not shown
light: B1 light
notes: Heterodimerized anti-glypican-3 IgG1; substitution in only one H chain; also called P271I; He Ab
B13: GpH7-A5/GpH7-B3 variant P271_11K/GpL16-k0 (antibody, human IgG1, kappa)
heavy 1: not shown
heavy 2: not shown
light: B1 light
notes: Heterodimerized anti-glypican-3 IgG1; substitution in only one H chain; also called P271K; He Ab
B14: GpH7-A5/GpH7-B3 variant Q295_03V/GpL16-k0 (antibody, human IgG1, kappa)
heavy 1: not shown
heavy 2: not shown
light: B1 light
notes: Heterodimerized anti-glypican-3 IgG1; substitution in only one H chain; also called Q295V; He Ab
B15: GpH7-A5/GpH7-B3 variant Q295_05P/GpL16-k0 (antibody, human IgG1, kappa)
heavy 1: not shown
heavy 2: not shown
light: B1 light
notes: Heterodimerized anti-glypican-3 IgG1; substitution in only one H chain; also called Q295P; He Ab
B16: GpH7-A5/GpH7-B3 variant P271_12R/GpL16-k0 (antibody, human IgG1, kappa)
heavy 1: not shown
heavy 2: not shown
light: B1 light
notes: Heterodimerized anti-glypican-3 IgG1; substitution in only one H chain; also called P271R; He Ab
B17: GpH7-A5/GpH7-B3 variant P271_15Y/GpL16-k0 (antibody, human IgG1, kappa)
heavy 1: not shown
heavy 2: not shown
light: B1 light
notes: Heterodimerized anti-glypican-3 IgG1; substitution in only one H chain; also called P271Y; He Ab
B18: GpH7-A5/GpH7-B3 variant P271_18N/GpL16-k0 (antibody, human IgG1, kappa)
heavy 1: not shown
heavy 2: not shown
light: B1 light
notes: Heterodimerized anti-glypican-3 IgG1; substitution in only one H chain; also called P271N; He Ab

T4 sequence (P12314 16-292): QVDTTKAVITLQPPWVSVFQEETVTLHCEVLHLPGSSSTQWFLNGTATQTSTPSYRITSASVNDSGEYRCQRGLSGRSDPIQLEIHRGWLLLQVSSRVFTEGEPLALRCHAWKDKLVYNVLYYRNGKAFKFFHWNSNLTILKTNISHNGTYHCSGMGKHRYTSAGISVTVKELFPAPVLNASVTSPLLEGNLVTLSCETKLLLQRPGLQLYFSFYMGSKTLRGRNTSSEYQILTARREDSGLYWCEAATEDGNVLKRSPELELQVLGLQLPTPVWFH
T3 sequence (P08637 17-208): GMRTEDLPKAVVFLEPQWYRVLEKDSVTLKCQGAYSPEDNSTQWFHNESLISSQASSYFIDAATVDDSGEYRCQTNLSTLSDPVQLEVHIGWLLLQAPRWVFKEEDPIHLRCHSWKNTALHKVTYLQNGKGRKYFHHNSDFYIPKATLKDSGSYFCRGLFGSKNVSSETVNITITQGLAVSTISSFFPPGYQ

The first assay concerns the target T3, FcγRIIIa extracellular domain with C-terminal His tag (human, UniProt P08637 17-208).
T3 construct: extracellular domain; also called FcgRIIIa; 3a; not shown: His tag at the C terminus
In words: SPR (Biacore), antibody captured on antigen peptide chip, FcγR as analyte; relative binding amount. The method, then:
(§1) Analysis of interaction between objective antibody and the FcγR was carried out using Biacore T100 (GE Healthcare). HBS-EP+ (GE Healthcare) was used as the running buffer, and the measurement temperature was set to 25° C. Chips produced by immobilizing the antigen peptide by the amine coupling method to a Series S Sencor Chip CM5 (GE Healthcare), or alternatively, chips produced by allowing preliminarily biotinylated antigen peptides to interact with and immobilize onto a Series S Sensor Chip SA (certified) (GE Healthcare) were used. Antibodies of interest were captured onto an antigen peptide-immobilized chip, and allowed to interact to each FcγR diluted with running buffer. To regenerate and repeatedly use the chip, the antibodies captured on the chip were washed off by reacting 10 mM glycine-HCl, pH 1.5.
(§2) The FcγR-binding activity of each antibody was assessed primarily using as an indicator the FcγR-binding activity and dissociation constant for FcγR.
On the technique in general: Surface plasmon resonance follows binding to a sensor surface in real time, without labels.
Consider B1, for which the He/Con_3a was 96.3 % of GpH7-A5/GpH7-B3/GpL16-k0 (=100).

Regarding B2, the He/Con_3a is 92.6 % of GpH7-A5/GpH7-B3/GpL16-k0 (=100).

In the case of B3, the He/Con_3a was 73.5 % of GpH7-A5/GpH7-B3/GpL16-k0 (=100).

In another assay the target is T1, FcγRIIb extracellular domain with …. The description is as above. As to the method:
as §1, §2
With B1, the He/Con_2b is 108 % of GpH7-A5/GpH7-B3/GpL16-k0 (=100).

Regarding B2, the He/Con_2b was 102 % of GpH7-A5/GpH7-B3/GpL16-k0 (=100).

On to B3, for which the He/Con_2b was 108 % of GpH7-A5/GpH7-B3/GpL16-k0 (=100).

The next assay deals with T2, FcγRIIb extracellular domain with …. In words: SPR (Biacore), antibody captured via antigen peptide, FcγR as analyte; binding relative to GpH7-A5/GpH7-B3/GpL16-k0 = 100.
In the case of B4, the He/Con_2b was 77.5 % of control (GpH7-A5/GpH7-B3/GpL16-k0 = 100).

In the case of B5, the He/Con_2b was 67.9 % of control (GpH7-A5/GpH7-B3/GpL16-k0 = 100).

For B6, the He/Con_2b was 88.6 % of control (GpH7-A5/GpH7-B3/GpL16-k0 = 100).

For B7, the He/Con_2b was 84.3 % of control (GpH7-A5/GpH7-B3/GpL16-k0 = 100).

In the case of B8, the He/Con_2b is 64.7 % of control (GpH7-A5/GpH7-B3/GpL16-k0 = 100).

On to B9, for which the He/Con_2b was 87.6 % of control (GpH7-A5/GpH7-B3/GpL16-k0 = 100).

B10: the He/Con_2b was 58.1 % of control (GpH7-A5/GpH7-B3/GpL16-k0 = 100).

Regarding B11, the He/Con_2b was 95.4 % of control (GpH7-A5/GpH7-B3/GpL16-k0 = 100).

On to B12, for which the He/Con_2b is 76.8 % of control (GpH7-A5/GpH7-B3/GpL16-k0 = 100).

Regarding B13, the He/Con_2b was 90.2 % of control (GpH7-A5/GpH7-B3/GpL16-k0 = 100).

Consider B14, for which the He/Con_2b was 75.7 % of control (GpH7-A5/GpH7-B3/GpL16-k0 = 100).

Take B15: the He/Con_2b is 67.5 % of control (GpH7-A5/GpH7-B3/GpL16-k0 = 100).

Consider B16, for which the He/Con_2b is 86.5 % of control (GpH7-A5/GpH7-B3/GpL16-k0 = 100).

For B17, the He/Con_2b is 52.3 % of control (GpH7-A5/GpH7-B3/GpL16-k0 = 100).

Regarding B18, the He/Con_2b was 93.3 % of control (GpH7-A5/GpH7-B3/GpL16-k0 = 100).

A further assay has as its target T4, FcγRIa extracellular domain with C-terminal His tag (human, UniProt P12314 16-292).
T4 construct: extracellular domain; Soluble receptor expressed in FreeStyle293 cells, used as analyte in Biacore; also called FcgRI; CD64; not shown: His tag at the C terminus
The assay is described as above.
Consider B4, for which the He/Con_1a was 102 % of control (GpH7-A5/GpH7-B3/GpL16-k0 = 100).

Turning to B5, the He/Con_1a was 102 % of control (GpH7-A5/GpH7-B3/GpL16-k0 = 100).

On to B6, for which the He/Con_1a is 103 % of control (GpH7-A5/GpH7-B3/GpL16-k0 = 100).

On to B7, for which the He/Con_1a was 103 % of control (GpH7-A5/GpH7-B3/GpL16-k0 = 100).

For B8, the He/Con_1a was 102 % of control (GpH7-A5/GpH7-B3/GpL16-k0 = 100).

Turning to B9, the He/Con_1a is 102 % of control (GpH7-A5/GpH7-B3/GpL16-k0 = 100).

B10: the He/Con_1a was 103 % of control (GpH7-A5/GpH7-B3/GpL16-k0 = 100).

B11: the He/Con_1a is 102 % of control (GpH7-A5/GpH7-B3/GpL16-k0 = 100).

As to B12, the He/Con_1a is 102 % of control (GpH7-A5/GpH7-B3/GpL16-k0 = 100).

For B13, the He/Con_1a was 103 % of control (GpH7-A5/GpH7-B3/GpL16-k0 = 100).

Consider B14, for which the He/Con_1a is 104 % of control (GpH7-A5/GpH7-B3/GpL16-k0 = 100).

As to B15, the He/Con_1a is 103 % of control (GpH7-A5/GpH7-B3/GpL16-k0 = 100).

On to B16, for which the He/Con_1a is 102 % of control (GpH7-A5/GpH7-B3/GpL16-k0 = 100).

As to B17, the He/Con_1a is 103 % of control (GpH7-A5/GpH7-B3/GpL16-k0 = 100).

As to B18, the He/Con_1a is 103 % of control (GpH7-A5/GpH7-B3/GpL16-k0 = 100).
